Patent US20100150950A1, “HUMAN ANTIBODIES THAT BIND CD70 AND USES THEREOF” (Medarex, Inc., priority 2006, published 2010)
Changes are numbered by the printed parent chain. Values belong to the molecule of their own block, whether it stands above or below them.

Assays:
[1] = molecular target: T1, CD70 expressed on the surface of Raji lymphoma cells (Homo sapiens, UniProt P32970); assay: Flow cytometry binding to Raji cells; settings: antibody 10 μg/ml
T1 construct: endogenous in cells; host or cells: Daudi (ATCC CCL-213), HuT 78 (TIB-161), Raji (CCL-86), Granta 519 (DSMZ 342)
T1 sequence (P32970 1-193): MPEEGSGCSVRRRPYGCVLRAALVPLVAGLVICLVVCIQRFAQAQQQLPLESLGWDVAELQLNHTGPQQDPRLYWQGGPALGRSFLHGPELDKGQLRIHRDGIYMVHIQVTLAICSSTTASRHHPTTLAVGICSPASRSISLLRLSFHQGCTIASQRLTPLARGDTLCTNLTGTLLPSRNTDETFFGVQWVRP
Procedure: Anti-CD70 antibodies were tested for binding to lymphoma cells expressing CD70 on their cell surface by flow cytometry.
The lymphoma cell lines Daudi (ATCC Accession No. CCL-213), HuT 78 (ATCC Accession No. TIB-161) and Raji (ATCC Accession No. CCL-86) were each tested for antibody binding. Binding of the HuMAb 2H5 anti-CD70 human monoclonal antibody was assessed by incubating 1×10^5 cells with 2H5 at a concentration of 1 μg/ml. The cells were washed and binding was detected with a FITC-labeled anti-human IgG Ab. […] Flow cytometric analyses were performed using a FACSCalibur flow cytometry (Becton Dickinson, San Jose, Calif.). The anti-CD70 monoclonal antibody 2H5 bound to the lymphoma cell lines Daudi, HuT 78 and Raji, as measured by the mean fluorescent intensity (MFI) of staining.
The lymphoma cell lines Raji and Granta 519 (DSMZ Accession No. 342) were tested for binding of the HuMAb anti-CD70 human monoclonal antibody 2H5 at varying concentrations. Binding of the anti-CD70 human monoclonal antibodies was assessed by incubating 5×10^5 cells with antibody at a starting concentration of 50 μg/ml and serially diluting the antibody at a 1:3 dilution. An isotype control antibody was used as a negative control. The cells were washed and binding was detected with a PE-labeled anti-human IgG Ab. […]

ARH-77 cells = assay: ADCC fluorescence cytotoxicity assay, ARH-77; assay type: cell-based, human; settings: target to effector ratio 1:50
Procedure: In this example, anti-CD70 monoclonal antibodies were tested for the ability to kill CD70+ cell lines in the presence of effector cells via antibody dependent cellular cytotoxicity (ADCC) in a fluorescence cytotoxicity assay.
Human effector cells were prepared from whole blood as follows. Human peripheral blood mononuclear cells were purified from heparinized whole blood by standard Ficoll-paque separation. The cells were resuspended in RPMI1640 media containing 10% FBS and 200 U/ml of human IL-2 and incubated overnight at 37° C. The following day, the cells were collected and washed four times in culture media and resuspended at 2×10^7 cells/ml. […]
The CD70+ cell lines ARH-77 (human B lymphoblast leukemia; ATCC Accession No. CRL-1621), HuT 78 (human cutaneous lymphocyte lymphoma; ATCC Accession No. TIB-161), Raji (human B lymphocyte Burkitt's lymphoma; ATCC Accession No. CCL-86) and a negative control cell line L540 (human Hodgkin's lymphoma; DSMZ Deposit No. ACC 72) were tested for antibody specific ADCC to the human anti-CD70 monoclonal antibodies using the Delfia fluorescence emission analysis as follows. […]
In this example, a defucosylated and non-defucosylated anti-CD70 monoclonal antibody was tested for the ability to kill CD70+cells in the presence of effector cells via antibody dependent cellular cytotoxicity (ADCC) in a fluorescence cytotoxicity assay […]

binding to Raji cells (MFI) [1]: bound
B1: anti-CD70 human monoclonal antibody 69A7 (antibody, V domains shown)
VH: QVQLQESGPGLVKPSETLSLTCTVSGGSVSSDYYYWSWIRQPPGKGLEWLGYIYYSGSTNYNPSLKSRVTISVDTSKNQFSLKLRSVTTADTAVYYCARGDGDYGGNCFDYWGQGTLVTVSS
VL: EIVLTQSPATLSLSPGERATLSCRASQSVSSYLAWYQQKPGQAPRLLIFDASNRATGIPARFSGSGSGTDFTLTISSLEPEDFAVYYCQQRSNWPLTFGGGTKVEIK
notes: Human IgG from hybridoma; also called HuMAb 69A7; FITC-conjugated 69A7

B2: 2H5 NF: 2H5 HuMAb lacking fucosyl residues, expressed in CHO cell line Ms704-PF (antibody, V domains shown)
VH: QVQLVESGGGVVQPGRSLRLSCAASGFTFSSYIMHWVRQAPGKGLEWVAVISYDGRNKYYADSVKGRFTISRDNSKNTLYLQMNSLRAEDTAVYYCARDTDGYDFDYWGQGTLVTVSS
VL: B1 VL with F49Y, S92T
ADCC, % lysis of ARH-77 (ARH-77 cells): increased percentage of specific lysis
